Test results published in the supplement of paper PMC6757056.
± gives the standard deviation of the averaged measurements.

B1: library; a variant is named by its letters at N, in order (parent)
chain: GCUGUCACCGGUGUAUUACCCUAGUGGUCGACCGGUCUGAUGAGUCUNNNNNNAGACGAAACAGC

Experiments:
[1] = variants of: B1; experiment: FACS-Seq fitted mean relative fluorescence mCherry/BFP without ligand (log10 relative fluorescence); ligand: hypoxanthine (xanthine aptamer); higher = higher reporter protein expression; conditions: HEK293T, ligand present: no
Method in brief: (§1)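 Fluorescence comes from a normal fit to bin counts, normalized against controls. HEK293T libraries lentivirally given a ribozyme-switch mCherry reporter and an EF1α-BFP marker were enriched, incubated 48 h with or without ligand, and sorted by mCherry/BFP into 6 bins. Bin genomic DNA was PCR-amplified, barcoded and sequenced on MiSeq. The log10(mCherry/BFP) mean was scaled to five spiked-in control ribozymes.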

[2] = variants of: B1; experiment: normalized RNA/DNA level with ligand (relative to sTRSVctl = 100) (log10 (% of sTRSVctl)); ligand: hypoxanthine (xanthine aptamer); higher = less ribozyme self-cleavage, higher mRNA level; conditions: ligand concentration (+) RNA-Seq: 5 mM, HEK293T, reporter: mCherry (pCS4076), ligand present: yes
Method in brief: (§2)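 Total RNA, extracted with EDTA 72 h after HEK293T cells were transfected with 4 µg per 6-well well of reporter-linked ribozyme switch library plasmids, was reverse-transcribed, amplified, barcoded and sequenced. Ligand, if used, was added 1 h before transfection. RNA level was derived from RNA reads divided by DNA reads and normalized to a spiked-in non-cleaving sequence or to the top sequences. This was multiplied by 100 and log10-transformed, with the top set of 25 sequences and a ≥100 DNA read minimum.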

[3] = variants of: B1; experiment: normalized RNA/DNA level without ligand (relative to sTRSVctl = 100) (log10 (% of sTRSVctl)); ligand: hypoxanthine (xanthine aptamer); higher = less ribozyme self-cleavage, higher mRNA level; conditions: HEK293T, reporter: mCherry (pCS4076), ligand present: no
Method in brief: as §2

[4] = variants of: B1; experiment: FACS-Seq fitted mean relative fluorescence mCherry/BFP with ligand (log10 relative fluorescence); ligand: hypoxanthine (xanthine aptamer); ligand concentration (+) FACS-Seq: 5 mM; higher = higher reporter protein expression; conditions: HEK293T, ligand present: yes
Method in brief: as §1

| Variant | FACS-Seq fitted mean (log10) [1] | normalized RNA/DNA level with ligand (log10) [2] | normalized RNA/DNA level without ligand (log10) [3] | FACS-Seq fitted mean (log10) [4] |
| --- | --- | --- | --- | --- |
| GCUUUC | 0.909 ± 0.14 | 1.959 ± 0.011 | 1.835 ± 0.016 | 0.723 ± 0.024 |
| GCUUUA | 0.789 ± 0.044 | 1.8872 ± 0.00046 | 1.93 ± 0.027 | 0.795 ± 0.071 |
| ACUAAA | 0.324 ± 0.083 | 1.897 ± 0.0002 | 1.76 ± 0.018 | 0.54 ± 0.027 |
| ACUAAG | -0.0198 ± 0.018 | 1.833 ± 0.017 | 1.5247 ± 0.0014 | 0.236 ± 0.15 |
| ACUAAU | 0.475 ± 0.018 | 1.92 ± 0.046 | 1.67 ± 0.058 | 0.628 ± 0.041 |
| ACUAAC | -0.0807 ± 0.092 | 1.95 ± 0.057 | 1.8 ± 0.041 | 0.0498 ± 0.032 |
| GCUAAU | 0.665 ± 0.11 | 1.93 ± 0.052 | 1.788 ± 0.012 | 0.7639 ± 0.0062 |
| GCUAAC | 0.101 ± 0.032 | 1.93 ± 0.036 | 1.66 ± 0.036 | -0.141 ± 0.025 |
| GCUAAG | -0.184 ± 0.019 | 1.838 ± 0.0086 | 1.421 ± 0.0074 | 0.199 ± 0.03 |
| CCUAUA | 0.827 ± 0.019 | 1.945 ± 0.016 | 1.83 ± 0.029 | 0.508 ± 0.074 |
| GGAAGG | -0.0545 ± 0.055 | 1.81 ± 0.03 | 1.29 ± 0.068 | 0.241 ± 0.04 |
| GGAAGC | 0.167 ± 0.013 | 1.77 ± 0.033 | 1.297 ± 0.0033 | 0.358 ± 0.042 |
| GGAAGA | 0.0989 ± 0.032 | 1.89 ± 0.045 | 1.45 ± 0.032 | 0.576 ± 0.039 |
| UCUUUA | 0.261 ± 0.0068 | 1.958 ± 0.004 | 1.9 ± 0.085 | 0.327 ± 0.02 |
| CCUAAA | 0.725 ± 0.1 | 1.95 ± 0.035 | 1.84 ± 0.019 | 0.615 ± 0.021 |
| ACUCAU | 0.604 ± 0.014 | 1.95 ± 0.042 | 1.84 ± 0.026 | 0.7156 ± 0.0036 |
| GCUUAG | 0.401 ± 0.077 | 1.83 ± 0.05 | 1.4 ± 0.025 | 0.791 ± 0.096 |
| GCUUAA | 0.221 ± 0.11 | 1.92 ± 0.047 | 1.79 ± 0.036 | 0.508 ± 0.0091 |

| Variant | FACS-Seq fitted mean (log10) [1] | normalized RNA/DNA level with ligand (log10) [2] | normalized RNA/DNA level without ligand (log10) [3] | FACS-Seq fitted mean (log10) [4] |
| --- | --- | --- | --- | --- |
| ACUGGA | 0.309 ± 0.0042 | 1.952 ± 0.017 | 1.71 ± 0.03 | 0.587 ± 0.064 |
| ACUGGU | 0.0934 ± 0.044 | 1.926 ± 0.0036 | 1.65 ± 0.06 | 0.1 ± 0.11 |
| GGACAA | 0.0221 ± 0.17 | 1.89 ± 0.02 | 1.76 ± 0.028 | 0.0902 ± 0.07 |
| ACGGUA | 0.318 ± 0.0024 | 1.85 ± 0.056 | 1.57 ± 0.064 | 0.5989 ± 0.004 |
| CGAAUA | 0.459 ± 0.085 | 1.9 ± 0.037 | 1.677 ± 0.0017 | 0.656 ± 0.027 |
| AGAAGG | 0.227 ± 0.0085 | 1.85 ± 0.051 | 1.42 ± 0.044 | 0.463 ± 0.011 |
| AGAAGA | 0.156 ± 0.021 | 1.92 ± 0.029 | 1.525 ± 0.013 | 0.466 ± 0.016 |
| ACUGUG | 0.119 ± 0.026 | 1.85 ± 0.033 | 1.42 ± 0.069 | 0.0877 ± 0.23 |
| UCUGAA | 0.338 ± 0.025 | 1.951 ± 0.0066 | 1.68 ± 0.04 | 0.512 ± 0.022 |
| ACUGCG | 0.125 ± 0.0038 | 1.92 ± 0.03 | 1.458 ± 0.013 | 0.557 ± 0.019 |
| ACUGCA | 0.637 ± 0.031 | 1.96 ± 0.028 | 1.83 ± 0.074 | 0.478 ± 0.012 |
| CCUGCG | -0.205 ± 0.019 | 1.98 ± 0.015 | 1.86 ± 0.0037 | -0.2206 ± 0.00099 |
| CCUCGA | 0.268 ± 0.026 | 2 ± 0.011 | 1.87 ± 0.044 | 0.314 ± 0.059 |
| CGAAAA | 0.531 ± 0.032 | 1.89 ± 0.062 | 1.6917 ± 0.00075 | 0.67 ± 0.045 |
| CGAAAC | 0.667 ± 0.046 | 1.92 ± 0.063 | 1.732 ± 0.0036 | 0.6 ± 0.081 |
| CGAAAU | 0.0751 ± 0.04 | 1.91 ± 0.049 | 1.73 ± 0.021 | 0.0235 ± 0.19 |
| ACUAGG | 0.706 ± 0.049 | 1.8318 ± 0.00012 | 1.424 ± 0.009 | 0.657 ± 0.03 |
| ACUAGA | 0.305 ± 0.02 | 1.919 ± 0.0065 | 1.73 ± 0.032 | 0.429 ± 0.0044 |
